The experiment relates to PBMC from healthy donors. The experiment can be described thus: VEGF mediated Th1/Th2 polarity: PBMC stimulated 3 days with CD3/CD28 expander beads, intracellular IFN-γ/IL-4 in CD4+ T-cells. Format: cell-based, human. The following applies: 10 μg/mL IL-12 added to culture containing 16 pg/mL of VEGF. The procedure:
PBMC (A) isolated from healthy donors were stimulated with PMA and ionomycin in the presence of brefeldin-A, permeabolized, and intracellularly stained for human IFN-γ (FITC) and human IL-4 (PE). PBMC were exposed to increasing concentrations of VEGF ([…]) without/with IL-12. All cells were immunostained with PC5 anti-human CD4. Purified CD4+ T-cells (B) were negatively isolated using Miltenyi beads, cultured, and stained in the same fashion as PBMC (A).
To determine the effect of VEGF on Th1 and Th2 polarity, PBMC from healthy donors were stimulated for 3 days with CD3/CD28 expander beads (Invitrogen Oslo, Norway) with and without increasing doses of recombinant VEGF (1-16 pg/mL). Cells were also cultured with 10 μg/mL recombinant human IL-12 (R and D Systems, Minneapolis, Minn.) or 8 μg/mL of a monoclonal anti-human IL-12 (R and D Systems Minneapolis, Minn. clone #24910). […]
In addition, healthy donor PBMC were stimulated with CD3^+/CD28^+ expander micro-beads for 3 days with increasing concentrations (1 pg/mL-16 pg/mL) of recombinant VEGF and assessed intracellular cytokine production of IL-4 (Th2 cytokine) and IFN-γ (Th1 cytokine) in CD4^+ T-cells at the end of in vitro culture (FIG. 8a).

B1: IL-12: recombinant human IL-12 (R and D Systems) (protein, UniProt P29459 23-219; P29460 23-328, looked up)
Interleukin-12 subunit alpha: RNLPVATPDPGMFPCLHHSQNLLRAVSNMLQKARQTLEFYPCTSEEIDHEDITKDKTSTVEACLPLELTKNESCLNSRETSFITNGSCLASRKTSFMMALCLSSIYEDLKMYQVEFKTMNAKLLMDPKRQIFLDQNMLAVIDELMQALNFNSETVPQKSSLEEPDFYKTKIKLCILLHAFRIRAVTIDRVMSYLNAS
Interleukin-12 subunit beta: IWELKKDVYVVELDWYPDAPGEMVVLTCDTPEEDGITWTLDQSSEVLGSGKTLTIQVKEFGDAGQYTCHKGGEVLSHSLLLLHKKEDGIWSTDILKDQKEPKNKTFLRCEAKNYSGRFTCWWLTTISTDLTFSVKSSRGSSDPQGVTCGAATLSAERVRGDNKEYEYSVECQEDSACPAAEESLPIEVMVDAVHKLKYENYTSSFFIRDIIKPDPPKNLQLKPLKNSRQVEVSWEYPDTWSTPHSYFSLTFCVQVQGKSKREKKDRVFTDKTSATVICRKNASISVRAQDRYYSSSWSEWASVPCS
As for B1, the “shift in T-helper polarity in culture containing VEGF” value is given as “prevented the shift in T-helper polarity from Th1 to Th2”.

Source of the values: patent US10287344B2, “Methods for reducing global chronic inflammation and the presence of melanoma” (Mayo Foundation for Medical Education and Research, priority 2008, dated 2019).
